Assay results: patent US20140206609A1 (Sanofi, published 2014)
*1 amine or outer side, *2 acyl side, *3 side chain or, on linkers, in order; H or OH if unused. Where no end group is shown, it is not given here. Side-chain parts run from the residue outwards. [ ]: non-standard residue; d: D form. The star is where a group is joined. henicosanoyl = CCCCCCCCCCCCCCCCCCCCC(=O)*; γGlu = O=C(O)[C@H](CCC(=O)[*:2])N[*:1]; Stearoyl = CCCCCCCCCCCCCCCCCC(=O)*; Palmitoyl = CCCCCCCCCCCCCCCC(=O)*; Aib = CC(C)(N)C(=O)O

T1: human GIP receptor (human, UniProt P48546 22-466)
T1 sequence (looked up): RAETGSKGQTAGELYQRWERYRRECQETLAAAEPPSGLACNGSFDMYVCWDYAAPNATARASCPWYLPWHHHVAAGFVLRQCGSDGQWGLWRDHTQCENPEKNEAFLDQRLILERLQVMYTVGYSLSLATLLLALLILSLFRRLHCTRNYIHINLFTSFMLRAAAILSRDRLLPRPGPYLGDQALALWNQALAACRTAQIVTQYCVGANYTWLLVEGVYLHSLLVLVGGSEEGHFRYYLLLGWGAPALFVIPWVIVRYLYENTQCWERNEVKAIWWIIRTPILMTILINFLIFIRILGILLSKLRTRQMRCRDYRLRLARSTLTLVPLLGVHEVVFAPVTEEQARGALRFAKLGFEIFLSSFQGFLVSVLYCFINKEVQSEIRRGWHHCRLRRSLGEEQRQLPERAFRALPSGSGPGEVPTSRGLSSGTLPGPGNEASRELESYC

B1: SEQ ID NO: 22 (peptide)
peptide: Y[Aib]EGTFTSDLSIQK([γGlu-Palmitoyl])DSRAAQDFIEWLKAGGPSSGAPPPS-NH2
modifications: N-terminus assumed
SMILES: CCCCCCCCCCCCCCCC(=O)N[C@@H](CCC(=O)NCCCC[C@H](NC(=O)[C@H](CCC(N)=O)NC(=O)[C@@H](NC(=O)[C@H](CO)NC(=O)[C@H](CC(C)C)NC(=O)[C@H](CC(=O)O)NC(=O)[C@H](CO)NC(=O)[C@@H](NC(=O)[C@H](Cc1ccccc1)NC(=O)[C@@H](NC(=O)CNC(=O)[C@H](CCC(=O)O)NC(=O)C(C)(C)NC(=O)[C@@H](N)Cc1ccc(O)cc1)[C@@H](C)O)[C@@H](C)O)[C@@H](C)CC)C(=O)N[C@@H](CC(=O)O)C(=O)N[C@@H](CO)C(=O)N[C@@H](CCCNC(=N)N)C(=O)N[C@@H](C)C(=O)N[C@@H](C)C(=O)N[C@@H](CCC(N)=O)C(=O)N[C@@H](CC(=O)O)C(=O)N[C@@H](Cc1ccccc1)C(=O)N[C@H](C(=O)N[C@@H](CCC(=O)O)C(=O)N[C@@H](Cc1c[nH]c2ccccc12)C(=O)N[C@@H](CC(C)C)C(=O)N[C@@H](CCCCN)C(=O)N[C@@H](C)C(=O)NCC(=O)NCC(=O)N1CCC[C@H]1C(=O)N[C@@H](CO)C(=O)N[C@@H](CO)C(=O)NCC(=O)N[C@@H](C)C(=O)N1CCC[C@H]1C(=O)N1CCC[C@H]1C(=O)N1CCC[C@H]1C(=O)N[C@@H](CO)C(N)=O)[C@@H](C)CC)C(=O)O
B2: SEQ ID NO: 20 (peptide)
peptide: Y[Aib]EGTFTSDLSIQK([γGlu-henicosanoyl])EKRAA[Aib]EFIEWLKNTGPSSGAPPPS-NH2
modifications: N-terminus assumed
SMILES: CCCCCCCCCCCCCCCCCCCCC(=O)N[C@@H](CCC(=O)NCCCC[C@H](NC(=O)[C@H](CCC(N)=O)NC(=O)[C@@H](NC(=O)[C@H](CO)NC(=O)[C@H](CC(C)C)NC(=O)[C@H](CC(=O)O)NC(=O)[C@H](CO)NC(=O)[C@@H](NC(=O)[C@H](Cc1ccccc1)NC(=O)[C@@H](NC(=O)CNC(=O)[C@H](CCC(=O)O)NC(=O)C(C)(C)NC(=O)[C@@H](N)Cc1ccc(O)cc1)[C@@H](C)O)[C@@H](C)O)[C@@H](C)CC)C(=O)N[C@@H](CCC(=O)O)C(=O)N[C@@H](CCCCN)C(=O)N[C@@H](CCCNC(=N)N)C(=O)N[C@@H](C)C(=O)N[C@@H](C)C(=O)NC(C)(C)C(=O)N[C@@H](CCC(=O)O)C(=O)N[C@@H](Cc1ccccc1)C(=O)N[C@H](C(=O)N[C@@H](CCC(=O)O)C(=O)N[C@@H](Cc1c[nH]c2ccccc12)C(=O)N[C@@H](CC(C)C)C(=O)N[C@@H](CCCCN)C(=O)N[C@@H](CC(N)=O)C(=O)N[C@H](C(=O)NCC(=O)N1CCC[C@H]1C(=O)N[C@@H](CO)C(=O)N[C@@H](CO)C(=O)NCC(=O)N[C@@H](C)C(=O)N1CCC[C@H]1C(=O)N1CCC[C@H]1C(=O)N1CCC[C@H]1C(=O)N[C@@H](CO)C(N)=O)[C@@H](C)O)[C@@H](C)CC)C(=O)O
B3: SEQ ID NO: 21 (peptide)
peptide: Y[Aib]EGTFTSDLSIQK([γGlu-Stearoyl])ESRAAQEFIEWLKAGGPSSGAPPPS-NH2
modifications: N-terminus assumed
SMILES: CCCCCCCCCCCCCCCCCC(=O)N[C@@H](CCC(=O)NCCCC[C@H](NC(=O)[C@H](CCC(N)=O)NC(=O)[C@@H](NC(=O)[C@H](CO)NC(=O)[C@H](CC(C)C)NC(=O)[C@H](CC(=O)O)NC(=O)[C@H](CO)NC(=O)[C@@H](NC(=O)[C@H](Cc1ccccc1)NC(=O)[C@@H](NC(=O)CNC(=O)[C@H](CCC(=O)O)NC(=O)C(C)(C)NC(=O)[C@@H](N)Cc1ccc(O)cc1)[C@@H](C)O)[C@@H](C)O)[C@@H](C)CC)C(=O)N[C@@H](CCC(=O)O)C(=O)N[C@@H](CO)C(=O)N[C@@H](CCCNC(=N)N)C(=O)N[C@@H](C)C(=O)N[C@@H](C)C(=O)N[C@@H](CCC(N)=O)C(=O)N[C@@H](CCC(=O)O)C(=O)N[C@@H](Cc1ccccc1)C(=O)N[C@H](C(=O)N[C@@H](CCC(=O)O)C(=O)N[C@@H](Cc1c[nH]c2ccccc12)C(=O)N[C@@H](CC(C)C)C(=O)N[C@@H](CCCCN)C(=O)N[C@@H](C)C(=O)NCC(=O)NCC(=O)N1CCC[C@H]1C(=O)N[C@@H](CO)C(=O)N[C@@H](CO)C(=O)NCC(=O)N[C@@H](C)C(=O)N1CCC[C@H]1C(=O)N1CCC[C@H]1C(=O)N1CCC[C@H]1C(=O)N[C@@H](CO)C(N)=O)[C@@H](C)CC)C(=O)O
B4: SEQ ID NO: 19 (peptide)
peptide: Y[Aib]EGTFTSDLSIQK([γGlu-Stearoyl])EKRAAQEFIEWLKNTGPSSGAPPPS-NH2
modifications: N-terminus assumed
SMILES: CCCCCCCCCCCCCCCCCC(=O)N[C@@H](CCC(=O)NCCCC[C@H](NC(=O)[C@H](CCC(N)=O)NC(=O)[C@@H](NC(=O)[C@H](CO)NC(=O)[C@H](CC(C)C)NC(=O)[C@H](CC(=O)O)NC(=O)[C@H](CO)NC(=O)[C@@H](NC(=O)[C@H](Cc1ccccc1)NC(=O)[C@@H](NC(=O)CNC(=O)[C@H](CCC(=O)O)NC(=O)C(C)(C)NC(=O)[C@@H](N)Cc1ccc(O)cc1)[C@@H](C)O)[C@@H](C)O)[C@@H](C)CC)C(=O)N[C@@H](CCC(=O)O)C(=O)N[C@@H](CCCCN)C(=O)N[C@@H](CCCNC(=N)N)C(=O)N[C@@H](C)C(=O)N[C@@H](C)C(=O)N[C@@H](CCC(N)=O)C(=O)N[C@@H](CCC(=O)O)C(=O)N[C@@H](Cc1ccccc1)C(=O)N[C@H](C(=O)N[C@@H](CCC(=O)O)C(=O)N[C@@H](Cc1c[nH]c2ccccc12)C(=O)N[C@@H](CC(C)C)C(=O)N[C@@H](CCCCN)C(=O)N[C@@H](CC(N)=O)C(=O)N[C@H](C(=O)NCC(=O)N1CCC[C@H]1C(=O)N[C@@H](CO)C(=O)N[C@@H](CO)C(=O)NCC(=O)N[C@@H](C)C(=O)N1CCC[C@H]1C(=O)N1CCC[C@H]1C(=O)N1CCC[C@H]1C(=O)N[C@@H](CO)C(N)=O)[C@@H](C)O)[C@@H](C)CC)C(=O)O

biological target: human glucagon receptor (human, UniProt P47871 26-477); test: cell-based or functional assay
Sequence (P47871 26-477): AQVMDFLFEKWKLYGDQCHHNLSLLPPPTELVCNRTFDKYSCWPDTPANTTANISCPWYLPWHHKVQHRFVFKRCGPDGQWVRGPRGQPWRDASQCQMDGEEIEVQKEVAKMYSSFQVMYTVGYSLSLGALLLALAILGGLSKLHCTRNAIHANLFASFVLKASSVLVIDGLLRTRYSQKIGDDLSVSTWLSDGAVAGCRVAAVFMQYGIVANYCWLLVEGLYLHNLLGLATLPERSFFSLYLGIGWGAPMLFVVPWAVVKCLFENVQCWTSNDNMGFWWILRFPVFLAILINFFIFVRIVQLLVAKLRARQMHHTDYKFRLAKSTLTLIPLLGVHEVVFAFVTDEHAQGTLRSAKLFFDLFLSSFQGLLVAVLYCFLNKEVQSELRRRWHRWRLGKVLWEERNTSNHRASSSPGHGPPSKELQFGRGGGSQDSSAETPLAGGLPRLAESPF

Row | Binder | EC50 hGLUC R [pM]
1 | B1 | 11600 pM
2 | B2 | 3310 pM
3 | B3 | 10100 pM
4 | B4 | 708 pM

biological target: human GLP-1 receptor (human, UniProt P43220 24-463); test: cell-based or functional assay

Row | Binder | EC50 hGLP-1 R [pM]
5 | B1 | 32 pM
6 | B2 | 23.2 pM
7 | B3 | 4.8 pM
8 | B4 | 4 pM

biological target: T1, human GIP receptor; test: cell-based or functional assay

Row | Binder | EC50 hGIP R [pM]
9 | B1 | 16.6 pM
10 | B2 | 24.5 pM
11 | B3 | 6.4 pM
12 | B4 | 13.8 pM
